Test results: patent US20220098328A1, “ANTIBODIES TO M(H)DM2/4 AND THEIR USE IN DIAGNOSING AND TREATING CANCER” (NomoCan Pharmaceuticals LLC, priority 2017, published 2022)
Substitutions are numbered along the chain they refer to. “Also recorded” adds a separate entry of the source.

Tests used:
[1] = target: NMC-P2 peptide (SEQ ID NO:2), amino acids 15-25 of HDM2 (Homo sapiens, UniProt Q00987); assay: Peptide-ELISA; format: binding; details: 5 μg/ml peptide on plate, OD 450 nm
Experimental: Peptide-ELISA Methodology: 5 μg/ml of NMC-P1, NMC-P2 or NMC-P3 peptide antigen was dried onto a 96-well ELISA plate overnight. Plates were then blocked with 5% BSA in 1× phosphate-buffered saline (PBS) (100 μl/well) for 2 hours at room temperature. Microplate wells were then washed 5 times with 300 μl of ice cold 1×PBS. Appropriate dilutions of monoclonal antibodies NMC-103, NMC-204 or NMC-303 in 1% bovine serum albumin (BSA) in PBS solution were then incubated with their corresponding peptides (NMC-P1, NMC-P2 or NMC-P3, respectively) at room temperature. After 2 hours, wells were washed 5 times with 300 μl ice-cold PBS/well and 100 μl secondary antibody (HRP-labeled Goat anti-Mouse F(ab′)2 H&L cross-adsorbed secondary antibody (HRP-GaM F(ab′)2), ThermoFisher, Cat. No. A24524) diluted 1:2500 to 1:5000 in PBS-1% BSA solution were added and the incubation continued at room temperature. After 1 hour, the wells were washed again 5 times with 200 μl of ice-cold PBS and 50 μL of the TMB Substrate Solution (1-Step™ Ultra TMB-ELISA, ThermoFisher, Cat. No. 34028) were added to each well and color was allowed to develop for 30 minutes at room temperature. The reaction was stopped by addition of 50 μL of stop solution (ThermoFisher, Cat. No. SS04) to each well and absorbance of each well was read immediately for optical density (OD) at 450 nm.

[2] = target: T1, recombinant HDM2 protein (GST tagged) (Homo sapiens, UniProt Q00987); assay: Western blot (immunoblot); format: binding; details: 1 μg/well protein, antibody 1 μg/ml; band at approximately 83 kD
T1 construct: NMC-103, NMC-204 and NMC-303 reacted with the recombinant full-length HDM2 protein; purchased Abcam ab188727
Experimental: Western Blot: As for immunoblots, 1 μg/well of recombinant HDM2 protein (GST tagged, Abcam, Cat. No. ab188727) was separated on 8-16% sodium dodecyl sulfate (SDS) polyacrylamide gel and proteins were then transferred to polyvinylidene difluoride (PVDF) membrane. The membrane was blocked with 5% milk followed by incubation with monoclonal antibody NMC-103, NMC-204 or NMC-303 at 1 μg/ml in 1% milk in PBS for 2 hours. The membrane was then washed ×3 times (10 minutes each) and incubated for 1 hour with corresponding HRP-conjugated secondary antibody (Goat anti-Mouse IgG (H&L), F(ab′)2 Frag Cross-adsorbed HRP (HRP-GaM F(ab′)2), ThermoFisher, Cat. No. A24524) diluted 1:5000 in 1% BSA-PBS. The membrane was then washed ×3 times and incubated with Pierce ECL Plus Western Blotting Substrate (ThermoFisher, Cat. No. #32132) for 10 min before developing on a LICOR Scanner.

[3] = system: mouse Lewis Lung LL/2 cancer cells; assay: Flow cytometry (EDTA vs trypsin, intact vs permeabilized); format: cell-based; details: for % cells stained: 5 μg/ml antibody; for staining of trypsin-treated permeabilized cells: reduction in binding after trypsin vs reactivity with intracellular target
Experimental: Flow Cytometry Methodology: Cells that had been allowed to grow to about 80% confluency in 25 cm^2 tissue culture flasks were released with either EDTA (10 mmols; pH7.2; 5 min, 37° C.) or Trypsin (Gibco TrypLE Express), fixed with freshly made 4% buffered (pH 7.4) paraformaldehyde for 1 h at room temperature, washed several times with a large volume of ice-cold PBS, and blocked for 30 minutes at room temperature with 5% human serum albumin in PBS (intact, non-permeabilized cells). After establishing viability, the cell number was adjusted to 10^6 cells/ml and kept in ice-cold PBS until staining. Another set of the same cells was released with either EDTA or Trypsin and fixed with 4% buffered paraformaldehyde as above, then washed and blocked with 5% human serum albumin in PBS, and was treated separately with Triton X-100 (0.1% in PBS) (International Biotechnologies Inc. 07100) for 5 minutes at room temperature for membrane permeabilization. After washing off the Triton X-100 solution with PBS the cells were adjusted to 10^6 cells/ml and stored in ice-cold PBS. Cells (10^6/ml) from each preparation were then incubated either with 5 μg/ml of mAb to Na+/K+ ATPase α-1 (Abcam, Cat. No. ab2826), 5 μg/ml of mAb NMC-103, or 5 μg/ml of mAb NMC-204 for 90 min at room temperature. Following primary antibody incubation, cells were washed 3 times with ice-cold PBS followed by incubation with rabbit anti-mouse PE-Cy5 labeled secondary antibody (PE-Cy5-RaM IgG (H&L); Invitrogen, Cat. No. M35018) at room temperature. Sixty minutes later the cells were washed 3 times with PBS and subjected to flow cytometry analysis (BD Canto Flow Cytometry). Controls to establish background fluorescence included the analysis of samples of unstained cells as well as cells that had been processed with secondary antibody under the same conditions as used in the experimental samples.
Cells that had been allowed to grow to about 80% confluency in 75 cm^2 tissue culture flasks were released with either EDTA (10 mmols; pH 7.2; 5 min, 37° C.) or Trypsin (Gibco TrypLE Express), washed several times with ice-cold PBS, and blocked for 20 minutes on ice with 5% human serum albumin in PBS (intact, non-permeabilized cells). After establishing viability, the cell number was adjusted to 10^6 cells/ml and kept in ice-cold PBS until staining. Cells were then incubated with primary antibodies NMC-H103 (VH4/VK3) or NMC-C303 (1 μg/ml) for 30 minutes on ice. Following primary antibody incubation, cells were washed 3 times with ice-cold PBS, followed by incubation with goat anti-human PE labeled secondary antibody (Life technologies H10104) on ice for 20 minutes. Cells were then washed 3 times with PBS and incubated with 7AAD (5 μl/[…] of buffer) before flow cytometry analysis using Fortessa 5.

[4] = EDTA-treated permeabilized cells (Triton X-100)

T1 sequence (Q00987 whole entry): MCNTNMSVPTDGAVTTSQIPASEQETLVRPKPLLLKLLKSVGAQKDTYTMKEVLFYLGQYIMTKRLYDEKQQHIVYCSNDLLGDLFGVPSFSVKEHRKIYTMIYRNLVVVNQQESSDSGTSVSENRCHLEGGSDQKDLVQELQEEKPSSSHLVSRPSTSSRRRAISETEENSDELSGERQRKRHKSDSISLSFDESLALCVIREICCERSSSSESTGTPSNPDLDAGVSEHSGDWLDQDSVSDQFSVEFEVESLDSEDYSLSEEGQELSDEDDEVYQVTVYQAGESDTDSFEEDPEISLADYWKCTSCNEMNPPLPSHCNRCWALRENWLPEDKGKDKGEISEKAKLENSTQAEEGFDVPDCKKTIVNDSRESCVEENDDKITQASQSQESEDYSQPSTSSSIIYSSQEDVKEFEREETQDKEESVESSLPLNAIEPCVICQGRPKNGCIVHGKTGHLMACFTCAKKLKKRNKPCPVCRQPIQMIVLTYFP

B1: NMC-103: mouse monoclonal antibody of the IgG1 isotype that binds to NMC-P1 (SEQ ID NO:1); VH SEQ ID NO:36, VL SEQ ID NO:37 (antibody, V domains shown)
VH: EVQLQESGGGLVQPGGSLRLSCTTSGFTFTHYYMSWVRQPPGKALEWLGFIRNKAKGYTAEYSASVKGRFTISRDNSQSILYLQMNTLRPEDSATYYCARDIGDNWGQGTLVTVSS
VL: DIVMTQAAFSNPVTLGTSASISCRSSKNLLHSNGITYLYWYLQRPGQSPQLLISRVSNLASGVPNRFSGSESGTDFTLRISRVEAEDVGVYFCAQLLELPYTFGGGTKLEIK
modifications: mAb NMC-103 Heavy Chain Variable Region; mAb NMC-103 Light Chain Variable Region
- binding to NMC-P2 peptide [1]: did not bind
- reactivity with recombinant full-length HDM2-GST protein (immunoblot) [2]: reacted
- % cells stained ([3]; EDTA-treated intact cells): 70.4%
- % cells stained [3, 4]: 75.8%
- staining of trypsin-treated permeabilized cells [3]: compensated
- % cells stained ([3]; trypsin-treated intact cells): 36.8%

B2: NMC-H103 (VH4/VK3): humanized NMC-103 variant, human IgG1, VH4 (SEQ ID NO:299) and VK3 (SEQ ID NO:297) (antibody, V domains shown)
VH: B1 VH with Q5V, G16P, P40A, A44G, Q78K, I80T, T87S, P90A, S93T, T95V
VL: B1 VL with A7T, A8P, F9L, N11S, T17Q, S18P, R44K, N65D, R79K, L109V
modifications: human IgG1 constant regions lacking entries; mAb NMC-H103.VH4Heavy Chain Variable Region; mAb NMC-H103.VK3Light Chain Variable Region
- binding to live cells briefly treated with trypsin, flow cytometry ([3]; 7AAD negative): reduced
- binding to live (7AAD negative) cells, flow cytometry ([3]; antibody 1 μg/ml): binding

B3: NMC-204: mouse monoclonal antibody of the IgG3 isotype that binds to NMC-P2 (SEQ ID NO:2); VH SEQ ID NO:38, VL SEQ ID NO:39 (antibody, V domains shown)
VH: EVQLQESGSVLVRPGASVKLSCKASGDTLSGSWMHWAMQRPGQGLEWIGEIHLNRGTTNYNEKFKGKATVTVDTSSSTAYVDLSSLTSEDSAVYYCARSPGFAYWGQGTLVTVSA
VL: GIVMTQAAPSVPVTPGESVSISCRSSKSLLHSNGNSYLYWFLQRPGQSPQLLIYRMSNLASGVPDRFSGSGSGTAFTLRITRVEAEDVGVYYCMQHLEYPFTFGSGTKLEIK
modifications: mAb NMC-204 Heavy Chain Variable Region; mAb NMC-204 Light Chain Variable Region
- binding to NMC-P2 peptide [1]: bound; also recorded: strong binding
- reactivity with recombinant full-length HDM2-GST protein (immunoblot) [2]: reacted
- % cells stained ([3]; EDTA-treated intact cells): 51.2%
- % cells stained [3, 4]: 52.85%
- staining of trypsin-treated permeabilized cells [3]: compensated
- % cells stained ([3]; trypsin-treated intact cells): 27%
